# Experiments:
# [1] = system: strain of Lactococcus lactis which produces lacticin 481; assay: inhibition spectrum test on the lacticin 481 producer; assay type: cell-based
# Excerpt: When the strain of Lactococcus lactis which produces lacticin 481 is inoculated in the presence of a […] extract, as previously described in the inhibition spectrum test, the growth of the said strain is seen to be inhibited. The strain of Lactococcus lactis which produces lacticin 481 is immune to its own bacteriocin, lacticin 481, but is not immune to the […] produced by either of the two Micrococcus varians strains according to the present invention.
# [2] = system: Lactobacillus helveticus (N 2); assay: resistance to heat, agar well test; assay type: physicochemical; conditions: for Inhibition halos (mm): 100 °C, pH 7
# [3] = system: Lactobacillus helveticus (N 2); assay: resistance to heat and to pH, agar well test; assay type: physicochemical; conditions: for Inhibition halo (mm): 115 °C
# [4] = system: Lactobacillus bulgaricus (YL 5); assay: inactivation by enzymes, agar well test; assay type: physicochemical; conditions: 60 min, halo after treatment
# Gram-negative bacteria = assay: agar well test, inhibition spectrum, Gram-negative bacteria; assay type: cell-based; conditions: results of Table V
# Excerpt: The inhibition spectrum of the supernatant is thus determined.
# [5] = system: Lactobacillus helveticus (N 2); assay: inactivation by enzymes, agar well test; assay type: physicochemical; conditions: for Inhibition halo diameter after enzyme treatment: 60 min
# [6] = system: Lactobacillus helveticus (N 2); assay: resistance to pH, agar well test; assay type: physicochemical; conditions: readjusted to pH 6-7
# [7] = Catalase (SIGMA C-10) 5 mg/ml, incubation 30 °C
# [8] = Ficin (SIGMA F-3266) 5 mg/ml, incubation 37 °C
# [9] = Pronase E (SIGMA P-8038) 5 mg/ml, incubation 37 °C
# [10] = Proteinase K (MERCK 1000 144) 5 mg/ml, incubation 37 °C
substance,measurement,setting,value
lacticin 481,growth of the lacticin 481-producing strain in presence of bacteriocin,[1],immune
"variacin: bacteriocin from Micrococcus varians strains CNCM I-1586 and CNCM I-1587, amino acid sequence SEQ ID NO:1 (GSGVIPTISHECHMNSFQFVFTCCS)",Inhibition halos (mm),[2]; incubation time 15 min,27 mm
same,Inhibition halos (mm),[2]; incubation time 30 min,27 mm
same,Inhibition halos (mm),[2]; incubation time 60 min,27 mm
same,bactericidal activity after heating,[2]; 60 min incubation at 100 °C,not compromised
same,Inhibition halo (mm),"[3]; pH 4, 20 min",27 mm
same,bactericidal activity after pH combined with heat,"[3]; pH 4 or 7, combined with an elevated temperature",not compromised
same,Inhibition halo (mm),"[3]; pH 7, 20 min",27 mm
same,Inactivation (mm),[4]; [7],27 mm
same,Inactivation (mm),[4]; [8],0 mm
same,Inactivation (mm),[4]; [9],0 mm
same,Inactivation (mm),[4]; [10],0 mm
same,inhibitory effect on the growth of Gram-negative bacteria,Gram-negative bacteria,does not exert any inhibitory effect
same,Inhibition halo diameter after enzyme treatment,[5]; [7],27 mm
same,Inhibition halo diameter after enzyme treatment,[5]; [8],0 mm
same,Inhibition halo diameter after enzyme treatment,[5]; [9],0 mm
same,Inhibition halo diameter after enzyme treatment,[5]; [10],0 mm
same,effect of proteolytic enzymes on bactericidal activity,"[5]; all proteolytic enzymes of Tables I and II, indicator strains N 2 and YL 5",suppress the bactericidal activity
same,influence of catalase on bactericidal activity,[5]; two indicator strains N 2 and YL 5,not found to exert any influence
same,Inhibition halos,"[6]; pH 2, 37 °C for 60 min",27 mm
same,Inhibition halos,"[6]; pH 4, 37 °C for 60 min",27 mm
same,Inhibition halos,"[6]; pH 6, 37 °C for 60 min",27 mm
same,Inhibition halos,"[6]; pH 8, 37 °C for 60 min",27 mm
same,Inhibition halos,"[6]; pH 10, 37 °C for 60 min",27 mm

# Source: patent publication US6150139A, “Bacterocide compositions and their preparation from micrococcus varians” (priority 1995, dated 2000)
